Results reported in patent publication US20260049138A1 (Chugai, published 2026).
Positions count from the first letter of the chain named. In names and notes the source's numbering stands.

B1: GLS3000 Y96E one-arm antibody (antibody, human IgG1, kappa, L234A L235A, N297A, name in Kabat numbering)
heavy: QVQLVESGGGVVQPGRSLRLSCAASGFTFSNAWMHWVRQAPGKGLEWVAQIKAKSNNYATYYAESVKGRFTISRDDSKNSLYLQMNSLKTEDTAVYYCRYVHYGAYYGVDAWGQGTTVTVSSASTKGPSVFPLAPSSKSTSGGTAALGCLVKDYFPEPVTVSWNSGALTSGVHTFPAVLQSSGLYSLSSVVTVPSSSLGTQTYICNVNHKPSNTKVDKKVEPKSCDKTHTCPPCPAPEAAGGPSVFLFPPKPKDTLMISRTPEVTCVVVDVSHEDPEVKFNWYVDGVEVHNAKTKPREEQYASTYRVVSVLTVLHQDWLNGKEYKCKVSNKALPAPIEKTISKAKGQPREPQVYTLPPSRCELTKNQVSLSCAVKGFYPSDIAVEWESNGQPENNYKTTPPVLDSDGSFFLVSKLTVDKSRWQQGNVFSCSVMHEALHNHYTQKSLSLSPDYKDDDDK
chain: EPKSSDKTHTCPPCPAPELLGGPSVFLFPPKPKDTLMISRTPEVTCVVVDVSHEDPEVKFNWYVDGVEVHNAKTKPREEQYNSTYRVVSVLTVLHQDWLNGKEYKCKVSNKALPAPIEKTISKAKGQPREPQVCTLPPSRDELTKNQVSLWCLVKGFYPSDIAVEWESNGQPENNYKTTPPVLDSDGSFFLYSKLTVDKSRWQQGNVFSCSVMHEALHNRYTQKSLSLSP
light: DIVMTQSPLSLPVTPGEPASISCRSSQSLVHSNRNTYLHWYQQKPGQAPRLLIYKVSNRFSGVPDRFSGSGSGTDFTLKISRVEAEDVGVYYCGQGTQVPETFGQGTKLEIKRTVAAPSVFIFPPSDEQLKSGTASVVCLLNNFYPREAKVQWKVDNALQSGNSQESVTEQDSKDSTYSLSSTLTLSKADYEKHKVYACEVTHQGLSSPVTKSFNRGEC
B2: GLS3000 Q45E one-arm antibody (antibody)
chain 1: B1 light with R50E, E101Y
chain 2: B1 heavy
chain 3: B1 chain
B3: GLS3000 Y96F one-arm antibody (antibody, human IgG1, kappa, L234A L235A, N297A, name in Kabat numbering)
heavy: B1 heavy
chain: B1 chain
light: B1 light with E101F
B4: GLS3000 Y96L one-arm antibody (antibody, human IgG1, kappa, L234A L235A, N297A, name in Kabat numbering)
heavy: B1 heavy
chain: B1 chain
light: B1 light with E101L
B5: GLS3000 Y96H one-arm antibody (antibody, human IgG1, kappa, L234A L235A, N297A, name in Kabat numbering)
heavy: B1 heavy
chain: B1 chain
light: B1 light with E101H
B6: CE115HA000 H35A one-arm antibody (antibody, human IgG1, kappa, L234A L235A, N297A, name in Kabat numbering)
heavy: B1 heavy with H35A
chain: B1 chain
light: B1 light with E101Y
B7: CE115HA000 A52aD one-arm antibody (antibody, human IgG1, kappa, L234A L235A, N297A, name in Kabat numbering)
heavy: B1 heavy with A53D
chain: B1 chain
light: B1 light with E101Y
B8: CE115HA000 A56Y one-arm antibody (antibody, human IgG1, kappa, L234A L235A, N297A, name in Kabat numbering)
heavy: B1 heavy with A59Y
chain: B1 chain
light: B1 light with E101Y
B9: CE115HA000 A32Y one-arm antibody (antibody, human IgG1, kappa, L234A L235A, N297A, name in Kabat numbering)
heavy: B1 heavy with A32Y
chain: B1 chain
light: B1 light with E101Y
B10: CE115HA000 A99Y one-arm antibody (antibody, human IgG1, kappa, L234A L235A, N297A, name in Kabat numbering)
heavy: B1 heavy with A105Y
chain: B1 chain
light: B1 light with E101Y
B11: CE115HA000 A60D one-arm antibody (antibody, human IgG1, kappa, L234A L235A, N297A, name in Kabat numbering)
heavy: B1 heavy with A63D
chain: B1 chain
light: B1 light with E101Y
B12: CE115HA000 A56G one-arm antibody (antibody, human IgG1, kappa, L234A L235A, N297A, name in Kabat numbering)
heavy: B1 heavy with A59G
chain: B1 chain
light: B1 light with E101Y
B13: CE115HA000 A99Q one-arm antibody (antibody, human IgG1, kappa, L234A L235A, N297A, name in Kabat numbering)
heavy: B1 heavy with A105Q
chain: B1 chain
light: B1 light with E101Y
B14: CE115HA000 A56K one-arm antibody (antibody, human IgG1, kappa, L234A L235A, N297A, name in Kabat numbering)
heavy: B1 heavy with A59K
chain: B1 chain
light: B1 light with E101Y
B15: CE115HA000 A56N one-arm antibody (antibody, human IgG1, kappa, L234A L235A, N297A, name in Kabat numbering)
heavy: B1 heavy with A59N
chain: B1 chain
light: B1 light with E101Y
B16: CE115HA000 A56Q one-arm antibody (antibody, human IgG1, kappa, L234A L235A, N297A, name in Kabat numbering)
heavy: B1 heavy with A59Q
chain: B1 chain
light: B1 light with E101Y
B17: CE115HA000 A99S one-arm antibody (antibody, human IgG1, kappa, L234A L235A, N297A, name in Kabat numbering)
heavy: B1 heavy with A105S
chain: B1 chain
light: B1 light with E101Y
B18: CE115HA000 A56D one-arm antibody (antibody, human IgG1, kappa, L234A L235A, N297A, name in Kabat numbering)
heavy: B1 heavy with A59D
chain: B1 chain
light: B1 light with E101Y
B19: CE115HA000 A52aV one-arm antibody (antibody, human IgG1, kappa, L234A L235A, N297A, name in Kabat numbering)
heavy: B1 heavy with A53V
chain: B1 chain
light: B1 light with E101Y
B20: CE115HA000 A56L one-arm antibody (antibody, human IgG1, kappa, L234A L235A, N297A, name in Kabat numbering)
heavy: B1 heavy with A59L
chain: B1 chain
light: B1 light with E101Y
B21: CE115HA000 A102I one-arm antibody (antibody, human IgG1, kappa, L234A L235A, N297A, name in Kabat numbering)
heavy: B1 heavy with A111I
chain: B1 chain
light: B1 light with E101Y
B22: CE115HA000 A52aG one-arm antibody (antibody, human IgG1, kappa, L234A L235A, N297A, name in Kabat numbering)
heavy: B1 heavy with A53G
chain: B1 chain
light: B1 light with E101Y
B23: CE115HA000 A60E one-arm antibody (antibody, human IgG1, kappa, L234A L235A, N297A, name in Kabat numbering)
heavy: B1 heavy with A63E
chain: B1 chain
light: B1 light with E101Y
B24: CE115HA000 A99D one-arm antibody (antibody, human IgG1, kappa, L234A L235A, N297A, name in Kabat numbering)
heavy: B1 heavy with A105D
chain: B1 chain
light: B1 light with E101Y
B25: CE115HA000 A99L one-arm antibody (antibody, human IgG1, kappa, L234A L235A, N297A, name in Kabat numbering)
heavy: B1 heavy with A105L
chain: B1 chain
light: B1 light with E101Y
B26: CE115HA000 A52aS one-arm antibody (antibody, human IgG1, kappa, L234A L235A, N297A, name in Kabat numbering)
heavy: B1 heavy with A53S
chain: B1 chain
light: B1 light with E101Y
B27: CE115HA000 A52aP one-arm antibody (antibody, human IgG1, kappa, L234A L235A, N297A, name in Kabat numbering)
heavy: B1 heavy with A53P
chain: B1 chain
light: B1 light with E101Y
B28: CE115HA000 A99F one-arm antibody (antibody, human IgG1, kappa, L234A L235A, N297A, name in Kabat numbering)
heavy: B1 heavy with A105F
chain: B1 chain
light: B1 light with E101Y
B29: CE115HA000 A99K one-arm antibody (antibody, human IgG1, kappa, L234A L235A, N297A, name in Kabat numbering)
heavy: B1 heavy with A105K
chain: B1 chain
light: B1 light with E101Y
B30: CE115HA000 A52aE one-arm antibody (antibody, human IgG1, kappa, L234A L235A, N297A, name in Kabat numbering)
heavy: B1 heavy with A53E
chain: B1 chain
light: B1 light with E101Y
B31: CE115HA000 A99T one-arm antibody (antibody, human IgG1, kappa, L234A L235A, N297A, name in Kabat numbering)
heavy: B1 heavy with A105T
chain: B1 chain
light: B1 light with E101Y
B32: CE115HA000 A52aY one-arm antibody (antibody, human IgG1, kappa, L234A L235A, N297A, name in Kabat numbering)
heavy: B1 heavy with A53Y
chain: B1 chain
light: B1 light with E101Y

target: T1, CD3ε homodimer protein (human, UniProt P07766 23-126, limits assumed); experiment: SPR Biacore T200, CD3ε homodimer on chip;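 note: Light-chain single-residue variant antibodies injected over amine-coupled CD3ε homodimer on a CM4 chip at 25 °C, bound amount divided by that of the GLS3000-containing antibody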
T1 construct: also called CD3 (CD3ε)
T1 sequence (P07766 23-126 limits assumed): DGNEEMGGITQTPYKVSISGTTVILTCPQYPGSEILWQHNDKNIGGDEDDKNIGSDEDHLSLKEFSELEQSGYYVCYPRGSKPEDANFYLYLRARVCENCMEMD

ratio of amount bound vs unaltered GLS3000	Binder
0.17	B1
0.75	B2
1.17	B3
0.32	B4
0.23	B5

target: T2, CD3ε homodimer protein (human, UniProt P07766 23-126, limits assumed, sulfo-tag or biotin label in the ECL assays; amine-coupled to the chip in SPR); experiment: SPR Biacore T200; CD3ε homodimer on CM4 chip;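 note: Single-residue variant antibodies injected as analyte over CD3ε homodimer immobilized by amine coupling, run at 25 °C in HBS-EP+ buffer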
T2 construct: also called human CD3ε homodimer protein; CD3 (CD3ε)
T2 sequence (P07766 23-126 limits assumed): as above

ratio of amounts bound Z=Y/X (altered form / CE115HA000)	Binder
0.17	B6
1.34	B7
0.66	B8
0.33	B9
1.59	B10
0.99	B11
0.61	B12
0.91	B13
1.35	B14
0.67	B15
0.76	B16
0.82	B17
0.51	B18
0.52	B19
0.8	B20
1.48	B21
0.81	B22
0.94	B23
0.28	B24
1.13	B25
1.05	B26
0.15	B27
1.43	B28
1.48	B29
0.57	B30
0.84	B31
0.31	B32
